From US20240116985A1 (published 2024) come the findings set out here.

In experiment [1] the target is T1, beta-catenin in DLD1 TCF/LEF luciferase reporter cells (UniProt P35222 2-781).
T1 sequence (looked up): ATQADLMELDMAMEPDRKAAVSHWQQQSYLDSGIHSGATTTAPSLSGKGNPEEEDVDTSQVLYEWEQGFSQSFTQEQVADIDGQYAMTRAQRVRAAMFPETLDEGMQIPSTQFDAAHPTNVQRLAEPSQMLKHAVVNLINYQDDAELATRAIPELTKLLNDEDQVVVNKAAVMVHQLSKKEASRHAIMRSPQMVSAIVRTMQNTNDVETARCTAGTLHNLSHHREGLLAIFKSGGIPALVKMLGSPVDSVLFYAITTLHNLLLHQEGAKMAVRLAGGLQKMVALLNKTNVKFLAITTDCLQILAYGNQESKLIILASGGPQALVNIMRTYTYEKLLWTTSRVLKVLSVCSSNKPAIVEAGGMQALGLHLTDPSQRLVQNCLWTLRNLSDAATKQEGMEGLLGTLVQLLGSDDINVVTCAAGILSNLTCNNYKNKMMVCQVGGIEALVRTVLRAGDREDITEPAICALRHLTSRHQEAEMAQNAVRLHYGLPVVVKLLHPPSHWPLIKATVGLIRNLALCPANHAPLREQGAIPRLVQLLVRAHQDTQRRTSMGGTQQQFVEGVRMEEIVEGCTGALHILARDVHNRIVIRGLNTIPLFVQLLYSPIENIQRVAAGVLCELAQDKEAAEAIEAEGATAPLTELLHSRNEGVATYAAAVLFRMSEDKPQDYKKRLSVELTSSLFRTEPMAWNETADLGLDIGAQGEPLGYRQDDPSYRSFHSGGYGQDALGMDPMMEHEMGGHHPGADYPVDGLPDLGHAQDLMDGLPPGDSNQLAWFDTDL
As to the kind of experiment: cell-based or functional assay.

The target in experiment [2] is T2, B-cat-Halo (UniProt P35222 1-781).
T2 sequence (looked up): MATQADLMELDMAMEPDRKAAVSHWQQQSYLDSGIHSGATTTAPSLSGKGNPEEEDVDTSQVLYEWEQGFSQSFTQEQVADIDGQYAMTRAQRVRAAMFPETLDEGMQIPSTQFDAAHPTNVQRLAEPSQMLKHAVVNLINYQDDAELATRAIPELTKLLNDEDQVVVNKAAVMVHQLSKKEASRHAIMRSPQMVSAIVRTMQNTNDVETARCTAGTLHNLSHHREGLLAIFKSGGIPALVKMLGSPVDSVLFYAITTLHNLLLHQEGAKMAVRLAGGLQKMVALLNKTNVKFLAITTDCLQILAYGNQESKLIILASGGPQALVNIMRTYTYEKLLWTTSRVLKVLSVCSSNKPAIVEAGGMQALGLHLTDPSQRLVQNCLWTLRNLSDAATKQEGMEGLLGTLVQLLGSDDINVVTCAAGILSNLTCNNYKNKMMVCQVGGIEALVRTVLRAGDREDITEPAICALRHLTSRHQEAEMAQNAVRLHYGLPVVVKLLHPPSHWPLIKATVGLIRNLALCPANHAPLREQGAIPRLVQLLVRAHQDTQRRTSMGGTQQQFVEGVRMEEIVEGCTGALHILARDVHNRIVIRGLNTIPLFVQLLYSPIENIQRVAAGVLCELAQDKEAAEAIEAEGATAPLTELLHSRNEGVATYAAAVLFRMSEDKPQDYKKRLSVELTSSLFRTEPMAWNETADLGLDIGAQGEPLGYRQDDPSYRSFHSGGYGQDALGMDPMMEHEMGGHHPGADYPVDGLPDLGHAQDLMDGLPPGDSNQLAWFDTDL
Briefly: cell-based or functional assay.

Experiment [3] concerns the target T3, B-cat-Halo (beta-catenin HaloTag construct expressed in HEK293 cells) (UniProt P35222 1-781, HaloTag NanoBRET 618 Ligand bound in the assay).
T3 construct: Transfected NanoBRET construct; not shown: HaloTag
T3 sequence (looked up): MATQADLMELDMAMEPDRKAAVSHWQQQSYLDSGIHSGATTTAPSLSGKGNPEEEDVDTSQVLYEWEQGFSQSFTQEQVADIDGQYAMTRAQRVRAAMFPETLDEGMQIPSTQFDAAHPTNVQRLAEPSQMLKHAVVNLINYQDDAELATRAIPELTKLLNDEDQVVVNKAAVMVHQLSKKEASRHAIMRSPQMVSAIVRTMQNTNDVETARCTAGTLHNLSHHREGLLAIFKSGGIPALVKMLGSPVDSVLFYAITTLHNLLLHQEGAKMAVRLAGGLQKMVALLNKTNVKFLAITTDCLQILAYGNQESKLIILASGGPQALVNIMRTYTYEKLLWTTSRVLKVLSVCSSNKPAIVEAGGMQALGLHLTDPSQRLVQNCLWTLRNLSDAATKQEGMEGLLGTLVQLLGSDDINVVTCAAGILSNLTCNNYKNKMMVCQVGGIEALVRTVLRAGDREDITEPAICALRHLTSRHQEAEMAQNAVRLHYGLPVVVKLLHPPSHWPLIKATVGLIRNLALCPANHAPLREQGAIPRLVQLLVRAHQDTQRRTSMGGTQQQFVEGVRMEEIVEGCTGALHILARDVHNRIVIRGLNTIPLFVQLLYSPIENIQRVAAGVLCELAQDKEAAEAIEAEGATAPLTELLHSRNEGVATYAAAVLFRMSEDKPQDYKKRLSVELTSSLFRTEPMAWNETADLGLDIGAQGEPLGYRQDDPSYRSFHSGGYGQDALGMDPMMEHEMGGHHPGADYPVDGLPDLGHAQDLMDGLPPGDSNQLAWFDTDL
Briefly: NanoBRET Abs IC50 in HEK293 cells; B-cat-Halo with competitor TCF4-Luc. (Bioluminescence resonance energy transfer reports proximity on the nanometre scale.)

The target of experiment [4] is T4, full-length beta-Catenin (Uniprot ID P35222) (Homo sapiens (Human), UniProt P35222 2-781).
T4 construct: Given as 'full-length beta-Catenin (Uniprot ID P35222)' in the fluorescence polarization protocol; also called bCat; B-Catenin
T4 sequence: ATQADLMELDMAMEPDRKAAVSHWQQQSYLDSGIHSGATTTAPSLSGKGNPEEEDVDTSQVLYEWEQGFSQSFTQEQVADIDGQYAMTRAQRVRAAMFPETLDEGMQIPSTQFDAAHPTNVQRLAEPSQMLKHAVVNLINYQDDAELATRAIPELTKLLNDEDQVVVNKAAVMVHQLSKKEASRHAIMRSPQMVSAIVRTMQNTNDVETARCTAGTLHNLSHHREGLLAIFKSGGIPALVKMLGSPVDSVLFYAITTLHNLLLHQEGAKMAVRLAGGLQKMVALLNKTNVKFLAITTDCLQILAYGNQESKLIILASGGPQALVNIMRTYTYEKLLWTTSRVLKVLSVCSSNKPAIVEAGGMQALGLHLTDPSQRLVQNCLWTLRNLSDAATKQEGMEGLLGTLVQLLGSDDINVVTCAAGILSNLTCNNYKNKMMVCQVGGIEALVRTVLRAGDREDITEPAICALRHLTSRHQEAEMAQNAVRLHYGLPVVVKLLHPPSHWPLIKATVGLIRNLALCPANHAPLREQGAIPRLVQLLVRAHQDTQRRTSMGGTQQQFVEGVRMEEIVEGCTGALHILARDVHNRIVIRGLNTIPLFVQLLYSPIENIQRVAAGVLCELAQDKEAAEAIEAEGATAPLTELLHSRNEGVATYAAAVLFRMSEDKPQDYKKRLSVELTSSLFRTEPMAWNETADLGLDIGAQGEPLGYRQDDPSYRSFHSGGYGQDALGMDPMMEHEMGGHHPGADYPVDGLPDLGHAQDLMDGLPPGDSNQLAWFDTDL
Briefly: fluorescence polarization competition; full-length beta-catenin, competitor 5FAM-TCF4 10-53 probe. The procedure: The plate was incubated protected from light for 60 minutes at 20° C. prior to read. Reads were performed on a CLARIOstar plate reader (BMG Labtech) in duplicate, and data were fitted to a 1:1 binding model with hill slope using an in-house script. All provided concentrations are final concentrations.
In general terms: In fluorescence polarisation assays a small probe gives low polarisation when free and higher when bound to something large.

Starred links: 1 amine or outer side, 2 acyl side, 3 side chain; linkers in the order of their positions; H or OH if unused. Positions of bridges follow the written chain, without caps; N, C: chain ends. Non-standard residues stand in square brackets, D forms with d. Primed or numbered codes have the meaning given here. PyrS2″ = (S)-3-amino-1-((pent-4-en-1-yloxy)carbonyl)pyrrolidine-3-carboxylic acid (stapling residue), C=CCCCOC(=O)N1CC[C@@](N[*:1])(C(=O)[*:2])C1; PyrS2 = (S)-3-amino-1-((pent-4-en-1-yloxy)carbonyl)pyrrolidine-3-carboxylic acid, C=CCCCOC(=O)N1CC[C@@](N[*:1])(C(=O)[*:2])C1; B5(19) = 2-amino-2-(pent-4-en-1-yl)hept-6-enoic acid (bis(4-pentenyl)glycine), C=CCCCC(CCCC=C)(N[*:1])C(=O)[*:2]; EtGA = (S)-2-amino-3-((carboxymethyl)(ethyl)amino)propanoic acid, CCN(CC(=O)[*:3])C[C@H](N[*:1])C(=O)[*:2]; B5(3) = 2,2-bis(4-pentenyl)glycine (stitching residue), C=CCCCC(CCCC=C)(N[*:1])C(=O)[*:2]; Bta = N[C@@H](Cc1csc2ccccc12)C(=O)O; αAllylPro = C=CC[C@@]1(C(=O)O)CCCN1; tBuAla = CC(C)(C)C[C@H](N)C(=O)O; 3Thi = N[C@@H](Cc1ccsc1)C(=O)O

Turning to Ac-[αAllylPro]D[tBuAla][B5(3)]D[EtGA]AAFL[PyrS2″][3Thi][Bta]Q-NH2 (staple 1-4, 4-11; also: later-eluting HPLC isomer) [I-973], the “DLD1 4% Abs IC50” value in experiment [1] was 10.1 µM. The “NanoBRET Abs IC50” value in experiment [2] turned out to be 19 µM.

Take Ac-[αAllylPro]DL[B5(19)]DDAAFL[PyrS2]F[Bta]Q-NH2 (staple 1-4, 4-11) [I-1402]: the half-maximal inhibitory concentration (IC50) – broadly, the point on the concentration scale where inhibition reaches its midpoint – in experiment [3] turned out to be 27.1 µM; in experiment [4], 0.009 µM.
